Experimental data from US20200297818A1 (ZEALAND PHARMA A S, published 2020).
*1 amine or outer side, *2 acyl side, *3 side chain or, on linkers, in order; H or OH if unused. Side-chain parts run from the residue outwards. [ ]: non-standard residue; d: D form. The star is where a group is joined. C20 diacid = O=C(O)CCCCCCCCCCCCCCCCCCC(=O)*; γGlu = O=C(O)[C@H](CCC(=O)[*:2])N[*:1]; AEEA = NCCOCCOCC(=O)O; Aib = CC(C)(N)C(=O)O

Key:
[1] = molecular target: human glucagon-like peptide 1 receptor (GLP-1 R) (human, UniProt P43220 24-463); experiment: cell-based or functional assay
[2] = molecular target: T1, human GLP-2 receptor (hGLP2-R) (human, UniProt O95838 1-553); experiment: cell-based or functional assay
T1 sequence (looked up): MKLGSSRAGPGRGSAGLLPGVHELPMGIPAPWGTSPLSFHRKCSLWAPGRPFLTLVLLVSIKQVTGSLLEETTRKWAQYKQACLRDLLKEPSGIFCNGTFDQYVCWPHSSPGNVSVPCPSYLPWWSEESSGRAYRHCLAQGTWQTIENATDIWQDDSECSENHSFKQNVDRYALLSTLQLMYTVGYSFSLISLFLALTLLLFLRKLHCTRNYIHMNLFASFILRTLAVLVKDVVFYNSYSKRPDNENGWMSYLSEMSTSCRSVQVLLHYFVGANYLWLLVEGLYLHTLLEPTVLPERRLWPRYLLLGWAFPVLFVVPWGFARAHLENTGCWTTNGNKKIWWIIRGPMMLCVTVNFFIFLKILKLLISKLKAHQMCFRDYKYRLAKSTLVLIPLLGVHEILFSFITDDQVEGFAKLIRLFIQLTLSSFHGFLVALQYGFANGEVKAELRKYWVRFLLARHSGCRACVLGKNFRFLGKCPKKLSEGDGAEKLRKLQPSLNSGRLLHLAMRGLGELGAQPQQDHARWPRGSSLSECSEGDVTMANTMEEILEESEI

B1: Compound 46 (peptide)
peptide: H-H[Aib]EGTFTSELATILDEQAAK([AEEA-AEEA-γGlu-C20 diacid])DFIAWLIEHKITD-OH
SMILES: CC[C@H](C)[C@H](NC(=O)[C@H](Cc1ccccc1)NC(=O)[C@H](CC(=O)O)NC(=O)[C@H](CCCCNC(=O)COCCOCCNC(=O)COCCOCCNC(=O)CC[C@H](NC(=O)CCCCCCCCCCCCCCCCCCC(=O)O)C(=O)O)NC(=O)[C@H](C)NC(=O)[C@H](C)NC(=O)[C@H](CCC(N)=O)NC(=O)[C@H](CCC(=O)O)NC(=O)[C@H](CC(=O)O)NC(=O)[C@H](CC(C)C)NC(=O)[C@@H](NC(=O)[C@@H](NC(=O)[C@H](C)NC(=O)[C@H](CC(C)C)NC(=O)[C@H](CCC(=O)O)NC(=O)[C@H](CO)NC(=O)[C@@H](NC(=O)[C@H](Cc1ccccc1)NC(=O)[C@@H](NC(=O)CNC(=O)[C@H](CCC(=O)O)NC(=O)C(C)(C)NC(=O)[C@@H](N)Cc1c[nH]cn1)[C@@H](C)O)[C@@H](C)O)[C@@H](C)O)[C@@H](C)CC)C(=O)N[C@@H](C)C(=O)N[C@@H](Cc1c[nH]c2ccccc12)C(=O)N[C@@H](CC(C)C)C(=O)N[C@H](C(=O)N[C@@H](CCC(=O)O)C(=O)N[C@@H](Cc1c[nH]cn1)C(=O)N[C@@H](CCCCN)C(=O)N[C@H](C(=O)N[C@H](C(=O)N[C@@H](CC(=O)O)C(=O)O)[C@@H](C)O)[C@@H](C)CC)[C@@H](C)CC
EC50 GLP-1 (nM); cAMP response [1]: 0.26 nM
EC50 GLP-2 (nM); cAMP response [2]: 0.38 nM
